According to patent US20230416345A1, “NEW TYPE II COLLAGEN BINDING PROTEINS” (Navigo Proteins GmbH, priority 2020, published 2023):

T1: human collagen type III (Homo sapiens, UniProt P02461)
T1 construct: purchased Abcam ab7535
T1 sequence (P02461 154-1221 limits assumed): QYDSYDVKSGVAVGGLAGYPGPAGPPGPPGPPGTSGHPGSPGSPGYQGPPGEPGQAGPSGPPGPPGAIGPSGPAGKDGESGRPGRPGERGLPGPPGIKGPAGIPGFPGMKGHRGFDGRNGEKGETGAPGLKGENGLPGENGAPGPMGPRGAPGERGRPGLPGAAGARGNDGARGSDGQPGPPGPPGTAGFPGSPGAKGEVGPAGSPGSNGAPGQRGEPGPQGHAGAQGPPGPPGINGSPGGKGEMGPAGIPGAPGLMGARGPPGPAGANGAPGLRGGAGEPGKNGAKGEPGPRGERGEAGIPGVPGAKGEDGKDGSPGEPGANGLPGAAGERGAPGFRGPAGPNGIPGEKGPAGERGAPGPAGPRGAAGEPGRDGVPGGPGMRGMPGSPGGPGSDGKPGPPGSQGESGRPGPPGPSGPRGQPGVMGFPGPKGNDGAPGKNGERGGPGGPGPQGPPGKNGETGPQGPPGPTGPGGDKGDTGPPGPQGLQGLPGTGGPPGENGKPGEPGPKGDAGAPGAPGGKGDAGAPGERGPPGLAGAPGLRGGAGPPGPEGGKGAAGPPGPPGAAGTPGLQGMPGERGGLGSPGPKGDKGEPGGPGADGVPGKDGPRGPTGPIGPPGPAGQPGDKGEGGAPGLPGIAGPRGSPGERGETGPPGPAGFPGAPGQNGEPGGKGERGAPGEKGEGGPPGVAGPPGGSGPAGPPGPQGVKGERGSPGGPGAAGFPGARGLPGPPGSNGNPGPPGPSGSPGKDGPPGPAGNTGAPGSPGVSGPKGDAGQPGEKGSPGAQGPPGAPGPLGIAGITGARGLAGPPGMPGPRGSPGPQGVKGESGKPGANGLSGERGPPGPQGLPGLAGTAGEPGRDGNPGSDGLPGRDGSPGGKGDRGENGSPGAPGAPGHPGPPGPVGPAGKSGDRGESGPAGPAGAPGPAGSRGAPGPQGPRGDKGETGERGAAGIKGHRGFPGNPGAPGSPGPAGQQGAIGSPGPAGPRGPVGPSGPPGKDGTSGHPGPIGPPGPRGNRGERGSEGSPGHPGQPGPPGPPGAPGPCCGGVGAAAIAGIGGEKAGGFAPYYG


Experiments:
[1] = target: T2, recombinant human collagen type II (h Col II) (Homo sapiens, UniProt P02458); assay: KD-determination by ELISA vs human collagen type II; assay type: binding; conditions: for binding affinity (KD) to type II collagen by ELISA, in words: tetramers: of different species
T2 construct: purchased Chondrex CHX-20051
T2 sequence (P02458 182-1241): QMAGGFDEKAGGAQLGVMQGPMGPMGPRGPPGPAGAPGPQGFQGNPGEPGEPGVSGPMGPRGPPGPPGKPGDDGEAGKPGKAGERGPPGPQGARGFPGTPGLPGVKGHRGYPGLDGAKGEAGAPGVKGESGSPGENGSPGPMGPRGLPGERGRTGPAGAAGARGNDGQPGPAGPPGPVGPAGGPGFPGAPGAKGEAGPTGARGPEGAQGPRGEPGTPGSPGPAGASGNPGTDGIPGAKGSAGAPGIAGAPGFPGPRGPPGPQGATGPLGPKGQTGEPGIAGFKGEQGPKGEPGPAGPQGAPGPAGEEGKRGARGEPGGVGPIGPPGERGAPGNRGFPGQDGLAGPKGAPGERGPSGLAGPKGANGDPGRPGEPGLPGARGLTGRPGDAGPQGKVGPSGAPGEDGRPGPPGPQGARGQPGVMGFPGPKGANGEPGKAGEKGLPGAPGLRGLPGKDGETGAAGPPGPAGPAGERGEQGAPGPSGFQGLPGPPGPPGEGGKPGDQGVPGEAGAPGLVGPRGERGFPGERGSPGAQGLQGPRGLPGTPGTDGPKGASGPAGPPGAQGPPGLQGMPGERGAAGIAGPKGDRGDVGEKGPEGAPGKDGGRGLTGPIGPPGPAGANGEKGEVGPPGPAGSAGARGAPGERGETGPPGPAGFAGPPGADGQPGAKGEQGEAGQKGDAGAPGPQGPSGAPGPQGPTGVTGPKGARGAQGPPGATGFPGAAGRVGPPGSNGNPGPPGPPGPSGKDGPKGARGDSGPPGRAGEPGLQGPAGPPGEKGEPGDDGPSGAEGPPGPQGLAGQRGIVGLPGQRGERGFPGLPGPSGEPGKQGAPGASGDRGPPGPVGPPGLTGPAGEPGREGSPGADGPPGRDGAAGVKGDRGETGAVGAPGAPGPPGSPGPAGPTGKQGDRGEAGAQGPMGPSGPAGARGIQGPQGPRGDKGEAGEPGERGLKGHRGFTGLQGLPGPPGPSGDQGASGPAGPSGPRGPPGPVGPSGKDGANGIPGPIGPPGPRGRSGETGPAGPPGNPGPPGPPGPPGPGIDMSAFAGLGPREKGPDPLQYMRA
Procedure: (§1) High binding plates (Greiner, 781061) were immobilized with 2.5 μg/ml recombinant human collagen type II (h Col II, Chondrex, CHX-20051), rabbit collagen type II (rbCol II, prepared from rabbit eyes), porcine collagen type II (p Col II, prepared from porcine eyes), human collagen type I, (h Col I, Sigma, C5483-1MG), human collagen type V (h Col V, Abcam, ab7537), human collagen type III (h Col Ill, Abcam, ab7535) and 67B89 (domain of fibronectin, produced in E. coli) respectively over night at 4° C. ELISA-plates were washed 3 times with PBST (PBS+ 0.1% Tween) and blocked with 3% BSA/0.5% Tween/PBS 2 h at RT. After washing with PBST, dilution series of 1.1 μM to 7×10^−4 nM of dimers (CID 211999, CID 212000), dilution series of 100 nM to 7×10^−6 nM of tetramers (CID 212001 and CID 212704) and dilution series of 10 μM to 2 nM of dimer (CID 212705) were incubated on ELISA-plates 1 h at rt. Plates were washed with PBST and incubated with biotinylated anti-StrepTag-ab (Antikörper-online, ABIN1573895) with a dilution of 1:10.000 for 1 h at rt. The binding was visualized with a-rabbit-IgG-HRP (Sigma, A9169) with a dilution of 1:10.000 and as substrate TMB Plus von KEM EN TEC Diagnostic, Kat-Nr. 4395.

human collagen type III = target: T1, human collagen type III; assay: ELISA specificity vs human collagen type III; assay type: binding
Procedure: as §1

[2] = target: T3, human collagen type V (h Col V) (Homo sapiens, UniProt P05997+P20908); assay: ELISA specificity vs human collagen type V; assay type: binding
T3 construct: purchased Abcam ab7537
T3 sequence (P20908 38-1605 limits assumed): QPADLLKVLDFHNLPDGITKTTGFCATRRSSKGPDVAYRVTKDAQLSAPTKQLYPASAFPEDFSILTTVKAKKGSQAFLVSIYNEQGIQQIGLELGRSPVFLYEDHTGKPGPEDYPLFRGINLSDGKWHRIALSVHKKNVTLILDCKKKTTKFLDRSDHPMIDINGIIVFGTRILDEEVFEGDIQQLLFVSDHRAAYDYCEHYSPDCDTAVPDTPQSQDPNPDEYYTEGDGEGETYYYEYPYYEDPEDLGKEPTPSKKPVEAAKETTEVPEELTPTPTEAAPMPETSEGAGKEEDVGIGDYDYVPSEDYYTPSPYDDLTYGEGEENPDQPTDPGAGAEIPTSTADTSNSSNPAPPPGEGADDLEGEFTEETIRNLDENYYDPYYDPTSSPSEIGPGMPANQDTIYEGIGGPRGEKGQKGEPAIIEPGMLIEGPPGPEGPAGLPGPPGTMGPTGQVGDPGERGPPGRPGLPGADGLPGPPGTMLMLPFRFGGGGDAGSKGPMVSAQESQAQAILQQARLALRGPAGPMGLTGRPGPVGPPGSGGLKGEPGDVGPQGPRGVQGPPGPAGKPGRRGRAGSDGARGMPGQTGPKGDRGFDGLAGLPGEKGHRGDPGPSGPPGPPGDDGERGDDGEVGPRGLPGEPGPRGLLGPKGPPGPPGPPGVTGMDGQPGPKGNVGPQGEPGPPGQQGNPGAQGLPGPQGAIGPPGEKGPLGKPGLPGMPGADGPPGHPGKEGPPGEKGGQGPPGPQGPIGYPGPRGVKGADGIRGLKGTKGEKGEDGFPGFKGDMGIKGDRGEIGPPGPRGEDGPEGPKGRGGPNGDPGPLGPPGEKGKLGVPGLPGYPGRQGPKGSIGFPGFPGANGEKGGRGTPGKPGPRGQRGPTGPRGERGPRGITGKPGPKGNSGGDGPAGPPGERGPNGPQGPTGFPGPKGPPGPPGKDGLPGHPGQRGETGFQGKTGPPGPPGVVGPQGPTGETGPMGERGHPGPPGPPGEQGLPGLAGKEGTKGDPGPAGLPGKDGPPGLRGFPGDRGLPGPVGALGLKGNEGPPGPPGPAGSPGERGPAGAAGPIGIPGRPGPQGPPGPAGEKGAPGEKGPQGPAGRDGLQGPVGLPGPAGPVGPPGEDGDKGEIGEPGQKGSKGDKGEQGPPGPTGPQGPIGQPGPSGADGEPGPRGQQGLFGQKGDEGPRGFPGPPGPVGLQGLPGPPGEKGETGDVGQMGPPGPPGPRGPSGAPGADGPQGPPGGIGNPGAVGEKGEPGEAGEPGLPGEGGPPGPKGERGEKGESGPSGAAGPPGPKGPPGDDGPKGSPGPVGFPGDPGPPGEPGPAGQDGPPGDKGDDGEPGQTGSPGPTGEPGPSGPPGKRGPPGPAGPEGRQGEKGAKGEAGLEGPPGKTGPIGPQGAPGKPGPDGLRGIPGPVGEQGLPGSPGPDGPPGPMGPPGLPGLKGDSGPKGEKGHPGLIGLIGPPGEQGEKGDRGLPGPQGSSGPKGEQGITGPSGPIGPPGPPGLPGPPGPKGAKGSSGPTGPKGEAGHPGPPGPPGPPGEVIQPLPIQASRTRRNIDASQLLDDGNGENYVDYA
T3 sequence (P05997 27-1229 limits assumed): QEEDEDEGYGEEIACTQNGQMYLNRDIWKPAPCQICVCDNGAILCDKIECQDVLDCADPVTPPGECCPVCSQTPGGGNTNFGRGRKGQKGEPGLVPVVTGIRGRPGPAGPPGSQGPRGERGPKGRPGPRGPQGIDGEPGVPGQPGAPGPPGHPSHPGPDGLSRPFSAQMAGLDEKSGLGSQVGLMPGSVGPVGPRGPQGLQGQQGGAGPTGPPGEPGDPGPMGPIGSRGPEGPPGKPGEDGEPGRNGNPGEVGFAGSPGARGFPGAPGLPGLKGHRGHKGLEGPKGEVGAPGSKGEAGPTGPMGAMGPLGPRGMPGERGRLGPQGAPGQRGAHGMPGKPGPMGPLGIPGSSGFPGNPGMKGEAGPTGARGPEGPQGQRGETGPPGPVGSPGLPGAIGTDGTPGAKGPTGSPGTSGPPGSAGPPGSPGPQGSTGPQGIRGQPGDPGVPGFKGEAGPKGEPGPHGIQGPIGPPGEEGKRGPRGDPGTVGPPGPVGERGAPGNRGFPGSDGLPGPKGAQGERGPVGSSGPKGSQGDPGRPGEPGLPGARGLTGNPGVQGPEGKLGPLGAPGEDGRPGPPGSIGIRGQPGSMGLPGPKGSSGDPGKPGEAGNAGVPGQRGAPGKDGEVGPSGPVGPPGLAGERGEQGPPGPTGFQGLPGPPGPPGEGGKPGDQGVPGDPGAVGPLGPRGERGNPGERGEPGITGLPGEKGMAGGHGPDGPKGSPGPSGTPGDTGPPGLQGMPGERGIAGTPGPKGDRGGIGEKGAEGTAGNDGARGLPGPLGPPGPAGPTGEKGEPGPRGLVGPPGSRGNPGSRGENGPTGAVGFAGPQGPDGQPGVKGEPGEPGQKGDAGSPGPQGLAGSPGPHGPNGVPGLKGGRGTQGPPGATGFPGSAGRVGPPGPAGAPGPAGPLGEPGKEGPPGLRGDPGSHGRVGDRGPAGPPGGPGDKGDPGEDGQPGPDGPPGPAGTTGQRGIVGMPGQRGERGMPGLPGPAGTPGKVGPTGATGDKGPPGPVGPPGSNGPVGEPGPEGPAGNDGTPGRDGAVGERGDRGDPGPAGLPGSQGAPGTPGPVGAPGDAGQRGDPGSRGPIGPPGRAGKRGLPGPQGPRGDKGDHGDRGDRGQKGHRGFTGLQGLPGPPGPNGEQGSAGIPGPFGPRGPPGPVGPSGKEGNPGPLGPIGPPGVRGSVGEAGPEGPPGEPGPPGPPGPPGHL
Procedure: as §1

[3] = Soluble expression in Escherichia coli BL21(DE3); assay type: physicochemical; conditions: expression in E. coli BL21(DE3)
Procedure: Variants with affinity tag were expressed in Escherichia coli BL21(DE3) using a low copy plasmid system under regulation of a T7 promoter. Proteins were produced in soluble form after induction by lactose included in the medium (autoinduction medium). BL21 (DE3) competent cells were transformed with the expression plasmid, spread onto selective agar plates (kanamycin) and incubated overnight at 37° C. Precultures were inoculated from single colony in 3 ml 2×YT medium supplemented with 50 μg/ml kanamycin and cultured for 6 hours at 37° C. at 200 rpm in a conventional orbital shaker in culture tubes. […] Cultures were transferred to an orbital shaker and incubated at 30° C. and 200 rpm. Recombinant protein expression was induced by metabolizing glucose and subsequently allowing lactose to enter the cells. Cells were grown overnight for approx. 17 hours to reach a final OD600 of about 2-4. Before the harvest, the OD600 was measured, samples adjusted to 0.6/OD600 were withdrawn, pelleted and frozen at −20° C. To collect biomass cells were centrifuged at 12000×g for 15 min at 22° C. Pellets were weighed (wet weight). Cells were stored at −20° C. before processing.
(§2) Proteins with affinity tag were purified by affinity chromatography and size exclusion. After affinity chromatography purification using Strep-Tactin Superflow high capacity cartridges (IBA Lifesciences) a size exclusion chromatography (SEC) was performed using an Äkta system and a Superdex™ 200 HiLoad 16/600 column (Cytiva). Fused variants with Aflibercept were purified via MabSelect SuRe (Cytiva) affinity chromatography followed by a size exclusion chromatography (SEC) using an Äkta system and a Superdex™ 200 HiLoad 16/600 column (Cytiva). All chromatography processing steps were carried out on AKTA systems using matrices from Cytiva. Homogenous species of all purified ligands were obtained; no aggregation was detected. Following SOS-PAGE analysis positive fractions were pooled and their protein concentrations were measured. Further analysis included SOS-PAGE, SE-HPLC and RP-HPLC. Protein concentrations were determined by absorbance measurement at 280 nm using the molar absorbent coefficient. Reversed phase chromatography (RP-HPLC) was performed using a Dionex HPLC system and a PLRP-S (5 μm, 300 Å) column (Agilent). Analytic size exclusion chromatography (SE-HPLC) was performed using a Dionex HPLC system and a Superdex200 increase 5/150 GL (Cytiva). Binding of Collagen II was evaluated by SPR measurements using a Biacore 3000 system. Purified Collagen II was obtained from Chondrex.inc and VEGF-165 was obtained from Millipore. Targets were immobilized on a CM5-Sensor via NHS/EDC chemistry (immobilization level ˜1000 RU). Binding molecules were injected at different concentration and affinity was calculated by langmuir 1:1 binding model.

[4] = target: T4, hCol2 (human Type II collagen) (Homo sapiens, UniProt P02458); assay: Binding analysis by SPR (Biacore 3000) vs human type II collagen; conditions: for Affinity [SPR] vs hCol2: dimers or tetramers, Langmuir 1:1 model
T4 construct: purchased Chondrex
T4 sequence (P02458 182-1241): as the sequence (P02458 182-1241) above
Procedure: as §2
The purified proteins were immobilized on a CM-5 sensor chip (GE Healthcare) using NHS/EDC after PDEA activation resulting in 110-140 RU with a Biacore 3000 system (GE Healthcare). The chip was equilibrated with SPR running buffer (PBS 0.05% Tween pH 7.3). Upon binding, target analyte was accumulated on the surface increasing the refractive index. This change in the refractive index was measured in real time and plotted as response or resonance units versus time. The analytes were applied to the chip in serial dilutions with a flow rate of 30 μl/min. The association was performed for 120 seconds and the dissociation for 120 seconds. After each run, the chip surface was regenerated with 30 μl regeneration buffer (10 mM glycine pH 2.0) and equilibrated with running buffer.
Binding studies were carried out by the use of the BIAcore 3000 (GE Healthcare); data evaluation was operated via the BIAevaluation 3.0 software, provided by the manufacturer, using the Langmuir 1:1 model (RI=0). Evaluated dissociation constants (KD) were standardized against the immobilized protein and indicated. Shown is the change in refractive index measured in real time and plotted as response or resonance unit [RU] versus time [sec].

[5] = target: T5, human collagen type I (h Col I) (Homo sapiens, UniProt P02452+P08123); assay: ELISA specificity vs human collagen type I; assay type: binding
T5 construct: purchased Sigma C5483-1MG
Procedure: as §1

[6] = target: T6, 67B89 (domain of fibronectin) (Homo sapiens, UniProt P02751); assay: ELISA specificity vs 67B89; assay type: binding
T6 construct: unrelated fibronectin domain EDB (67B89) could be observed; made in house; host or cells: E. coli
T6 sequence (P02751 1089-1540 limits assumed): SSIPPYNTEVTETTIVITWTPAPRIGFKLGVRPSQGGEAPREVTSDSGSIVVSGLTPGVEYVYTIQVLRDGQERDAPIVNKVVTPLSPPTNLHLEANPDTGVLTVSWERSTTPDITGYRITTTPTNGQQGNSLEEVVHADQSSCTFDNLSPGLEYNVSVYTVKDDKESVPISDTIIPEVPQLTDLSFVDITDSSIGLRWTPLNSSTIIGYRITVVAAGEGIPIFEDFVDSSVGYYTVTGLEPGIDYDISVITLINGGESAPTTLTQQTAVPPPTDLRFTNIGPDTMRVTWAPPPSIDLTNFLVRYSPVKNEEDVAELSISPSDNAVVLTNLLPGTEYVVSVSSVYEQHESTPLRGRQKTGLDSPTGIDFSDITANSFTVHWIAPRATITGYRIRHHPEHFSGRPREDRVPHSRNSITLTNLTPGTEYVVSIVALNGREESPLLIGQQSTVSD
Procedure: as §1

Row | Molecule | binding affinity (KD) to type II collagen by ELISA, in words [1] | binding to type III collagen (ELISA) (human collagen type III) | binding to type V collagen (ELISA) [2] | Solubility Soluble expression [3] [%] | Binding to type II collagen via SPR ([4]; FIG. 3, FIG. 4A) | Affinity [SPR] vs hCol2 [4] [nM] | binding to type I collagen (ELISA) [5] | binding to domain of fibronectin (67B89) (ELISA) [6] | binding affinity (KD) to human type II collagen (ELISA) [1] [µM]
1 | CID 212001: tetramer of SEQ ID NO: 2 (protein, Col2 binding protein (tetramer of 211261) (CID212001)) IAAKFDEAQSAADSEILHLPNLTEQQRHYFRRWLSDDPSVSTHILTQAQHLNDDQAPKIAAKFDEAQSAADSEILHLPNLTEQQRHYFRRWLSDDPSVSTHILTQAQHLNDDQAPKIAAKFDEAQSAADSEILHLPNLTEQQRHYFRRWLSDDPSVSTHILTQAQHLNDDQAPKIAAKFDEAQSAADSEILHLPNLTEQQRHYFRRWLSDDPSVSTHILTQAQHLNDDQAPKSAWSHPQFEK | 3 digit-picomolar | No unspecific binding | No unspecific binding | 100 | binding to type II collagen with high affinity | <0.5 | No unspecific binding | No unspecific binding | 
2 | CID 210987: hetero-dimeric binding protein comprising SEQ ID NO: 10 and SEQ ID NO: 6 linked head-to-tail (protein, Col2 binding protein (dimer) 210987) IAAKFDEAQQAAFYEILHLPNLTEQQRNYFIQWLRDDPSVSLEVLGTAQRLNDSQAPKIAAKFDEAQQLAFYQILHLENLTEEQRNAFIQSLRDDPSVSLEVLGEAIKLNLSQAPK |  |  |  | 80 |  | 169 |  |  | 0.46
3 | CID 210992: heterodimer with SEQ ID NO: 10 as N-terminal monomer (protein, Col2 binding protein (dimer) 210992) IAAKFDEAQQAAFYEILHLPNLTEQQRNYFIQWLRDDPSVSLEVLGTAQRLNDSQAPKIAAKFDEAQQLAFYQILHLENLTEEQRNAFIQSLRDDPSVSTEVLGEAEKLNYSQAPK |  |  |  | 95 |  |  |  |  | 
4 | CID 211027: heterodimer with SEQ ID NO: 10 as N-terminal monomer (protein, Col2 binding protein (dimer) 211027) IAAKFDEAQQAAFYEILHLPNLTEQQRNYFIQWLRDDPSVSLEVLGTAQRLNDSQAPKIAAKFDEAQQLAFYQILHLENLTEEQRNAFIQSLRDDPSVSAEVLGEARKLNKSQAPK |  |  |  | 85 |  |  |  |  | 
5 | CID 211999: dimer of SEQ ID NO: 2 (dimer of directly joint monomers) (protein, Col2 binding protein (dimer of 211261) (CID211999)) IAAKFDEAQSAADSEILHLPNLTEQQRHYFRRWLSDDPSVSTHILTQAQHLNDDQAPKIAAKFDEAQSAADSEILHLPNLTEQQRHYFRRWLSDDPSVSTHILTQAQHLNDDQAPKSAWSHPQFEK | 1-2-digit nM | No unspecific binding | No unspecific binding | 100 |  | 127 | No unspecific binding | No unspecific binding | 
